These results are taken from patent publication US20220144922A1 (Adimab, published 2022).

As a reminder, the Kd is the free concentration of one partner at which half of the binding sites on the other are occupied at equilibrium, for simple one-to-one binding. Read a low Kd as tighter binding.

Experiment [1] has as its target T1, postfusion RSV F ectodomain (F ΔFP), subtype A (respiratory syncytial virus subtype A, UniProt P03420 26-109; P03420 147-524).
T1 construct: extracellular domain; also called Postfusion subtype A
Kind of experiment: BLI, IgG on sensor. In general terms: Biolayer interferometry detects binding as a change in optical thickness at a sensor tip.
Method: (§1) IgG binding to DS-Cav1 and FA FP was determined by BLI measurements using a FortéBio Octet HTX instrument (Pall Life Sciences). […] Data was analyzed using the ForteBio Data Analysis Software 7. The data was fit to a 1:1 binding model to calculate an association and dissociation rate, and KD was calculated using the ratio kd/kₐ.

In experiment [2] the target is T2, postfusion RSV F ectodomain, subtype B (respiratory syncytial virus subtype B).
T2 construct: extracellular domain; also called Postfusion subtype B
Kind of experiment: BLI, IgG on sensor.
Method: as §1

The target of experiment [3] is RSV F protein of subtype A strain A2, on virus (respiratory syncytial virus subtype A …, UniProt P03420 26-574). Kind of experiment: cell-based or functional assay.
The target in experiment [4] is RSV F protein of subtype B strain 18537, on virus (respiratory syncytial virus subtype B …, UniProt P13843 26-574). Kind of experiment: cell-based or functional assay.
Experiment [5] addresses T3, prefusion-stabilized RSV F ectodomain (DS-Cav1), subtype B (respiratory syncytial virus subtype B).
T3 construct: extracellular domain; also called Prefusion subtype B
Kind of experiment: BLI, IgG on sensor.
Method: as §1

B1: ADI-15666 (antibody, V domains shown)
VH: QVQLQQWGAGLLKPSETLSLTCGVSDGSFSAYYWNWIRQSPGKGLEWIGETNPSENTNYSPSLKNRVTISADRSANQFSLRLRSVTAADTGVYYCARGRGYYGSTTDYRGLHWFDPWGQGTLVTVSS
VL: ETTLTQSPVTLSVSPGERATLSCRASQSVSFNLAWYQQKPGQAPRLLIYGASTRVTNLPLRFSGSGSGTEFTLTISSLQSEDFAVYYCQQYNNWPRTFGQGTKLEIK
notes: IgG; also called Antibody Number 230
Consider B1, for which the results for the Kd in experiment [1] and in experiment [2] were 0.499 nM and 0.546 nM, respectively. The “Neut IC50 (ug/ml) subtype A” value in experiment [3] worked out at 1.41 µg/mL. The “Neut IC50 (ug/ml) subtype B” value in experiment [4] is more than 10 µg/mL.

B2: ADI-15619 (antibody, V domains shown)
VH: QVQLVQSGAEAKKPGASVKVSCTASGYTFTNDINWVRQATGQGLEWMGWMNPNNGHTGYGQKFEDRVTLTRDSSRSTAYMELSSLRFEDTAVYYCVYNFWSDSSVSWGRGTLVTVSS
VL: QSVVTQPPSVSGAPGQSVAISCTGSSSNIGPAYDVHWYQQTPGAAPKLLIYGDSNRPSGVPDRFSTSKSGTSASLAITGLQAEDEADYYCQSFDSSLRGYVFGTGTKVTVL
notes: IgG
Regarding B2, the figures for the Kd in experiment [1], in experiment [5] and in experiment [2] were 1.76 nM, 6.91 nM and 2.21 nM, respectively. In experiment [3], the “Neut IC50 (ug/ml) subtype A” value turned out to be 1.45 µg/mL. Further, in experiment [4], the “Neut IC50 (ug/ml) subtype B” value came to 0.377 µg/mL.

B3: ADI-15633 (antibody, V domains shown)
VH: QVQLVQSGAEVKKPGESLKISCKGSGYTFRMYWIGWARLLPGKGLEWIGIIYPGDSDTRYNPSLQGQVTMSVDKSINTAYLQWGSLKASDSAIYYCARLRLHPQSGMDVWGQGTLVTVSS
VL: NFMLTQPHSVSESPGKTVVISCTRSSGSIAGYYVQWYQHRPGSSPTTVIYEDDQRPSGVPDRFSGSVDSSSNSASLTISGLKTEDEADYYCQSYDNAIWVFGGGTKLTVL
notes: IgG
Regarding B3, the Kd in experiment [1] came to 0.104 nM; in experiment [5], 0.896 nM; in experiment [2] it was 0.111 nM. In experiment [3], the “Neut IC50 (ug/ml) subtype A” value was found to be 12.8 µg/mL. Also, the “Neut IC50 (ug/ml) subtype B” value in experiment [4] was more than 10 µg/mL.

B4: ADI-15561 (antibody, V domains shown)
VH: QVQLVQSGAEVKKPGSSVKVSCKASGGTFSSYAINWVRQAPGQGLEWMGGIIPAFGTTIYAQRFQDRVTITADKSTSTAYMELRSLRSEDTAVYYCARSPPFWSDYSRGWFDPWGQGTLVTVSS
VL: ETTLTQSPSALSASVGDRVTITCRASQTISGYLNWYQQKPGKAPKLLIYAASSLQSGVPSRFSGSSAGTDFTLSISNLQPEDFATYYCQQSYTTPWTFGQGTKVEIK
notes: IgG; also called Antibody Number 132
B4: the results for the Kd in experiment [1], in experiment [5] and in experiment [2] were 0.591 nM, 8.62 nM and 1.08 nM, respectively. Also, the “Neut IC50 (ug/ml) subtype A” value in experiment [3] amounted to 5.63 µg/mL. For the same molecule, the “Neut IC50 (ug/ml) subtype B” value in experiment [4] stood at 22.4 µg/mL.

B5: ADI-15005 (antibody, V domains shown)
VH: QVQLVESGPALVKPTQTLTLTCSFSGFSLTTRRMCVSWIRQTPGKALEWLARIDWDDDKDYSTSLKTRLTISKDTSKNQVVLTMTNMDPVDTATYYCARTHIYDSSGYYLYYFDYWGQGTLVTVSS
VL: DIVLTQSPSSLSASIGDRVTITCRASQTIASYLNWYQQKPGKAPELLIYAATNLQSGVPSRFSGSGSGTDFTLTISSLRPEDFASYYCQQSYSSPWTFGQGTKVDIK
notes: IgG; also called Antibody Number 124
In the case of B5, the Kd in experiment [1] was 0.237 nM; in experiment [5], 1.4 nM; in experiment [2], 0.253 nM. In experiment [3], the “Neut IC50 (ug/ml) subtype A” value was 2.16 µg/mL. Also, in experiment [4], the “Neut IC50 (ug/ml) subtype B” value is 2.53 µg/mL.

B6: ADI-15612 (antibody, V domains shown)
VH: EVQLLESGGDLVQPGGSLRLSCAASGFPFSSHSMNWVRQAPGKGLEWISYISGGSDTIQYADSVKGRFTISRDNVKNSLYLQMNSLRAEDTAVYYCARDQYIWNYVEPLDYWGQGTLVTVSS
VL: DIQMTQSPSSLSASVGDRVTITCRASQDISYYLGWYQQKAGKAPKLLIYAVSNLQTGVPSRFSGSGSGTDFTLTISSLQPEDFATYYCLQDHTCPWTFGQGTKVEIK
notes: IgG
Regarding B6, the Kd amounted to 0.416 nM in experiment [1], 0.157 nM in experiment [5] and 0.353 nM in experiment [2]. Besides, the “Neut IC50 (ug/ml) subtype A” value in experiment [3] came to 0.053 µg/mL. Moreover, the “Neut IC50 (ug/ml) subtype B” value in experiment [4] was found to be 0.164 µg/mL.

B7: ADI-15573 (antibody, V domains shown)
VH: QVQLVQSGAEVKKPGASVKISCKTSGYTFTSSVISWVRQAPGQGLEWVGWITGHRSSTNYAQRLQGRVTMTTDTSTSTAYMELRSLRSDDTAVYYCARADGGSGSYYSAWGQGTLVTVSS
VL: SYELTQPPSASVAPGKTARISCGGNNIGTKSVHWYQQKPGQAPVLVIYHDSHRPSGIPERFSGSNSGNTATLTISRVEAGDEADYYCQLWDSSSDSHVFGTGTKLTVL
notes: IgG; also called Antibody Number 143
B7: the figures for the Kd in experiment [1] and in experiment [2] were 0.198 nM and 0.199 nM, respectively. Moreover, the “Neut IC50 (ug/ml) subtype A” value in experiment [3] was 6.25 µg/mL. In experiment [4], the “Neut IC50 (ug/ml) subtype B” value was 1.67 µg/mL.

B8: ADI-15627 (antibody, V domains shown)
VH: EVQLVESGGGVVQPGRSLRLSCAASGFTFSDYAMHWVRQAPGKGLEWVAVIWYDGGNKYYADSAKGRFTISRDNSKNTLYLQMNSLRAEDTAVYYCAKDRGSIWNVGDGMDVWGQGTTVTVSS
VL: QPVLTQPPSVSVAPGQTARVTCGGNNIGAKSVHWYQQKPGQAPVLVVDDDTDRPSGIPERFSGSNSGNTATLTISRVEAGDEADYYCQVWDASIGPLYVFGTGTKLTVL
notes: IgG; also called Antibody Number 192
As for B8, the equilibrium dissociation constant (Kd) in experiment [1] amounted to 0.158 nM; in experiment [5], 1.61 nM; in experiment [2], 0.137 nM. The “Neut IC50 (ug/ml) subtype A” value in experiment [3] worked out at 2.17 µg/mL. The “Neut IC50 (ug/ml) subtype B” value in experiment [4] came out at 2.42 µg/mL.

B9: ADI-15644 (antibody, V domains shown)
VH: QVQLVQSGAEVKKPGSSVKVSCRTSGGTFSSFSISWVRQAPGQGLEWMGGIIPIFGTANYAKKFQGRVTITADESTDTAYMELRSLRSEDTAVYYCARDSPKISATEYYFDYWGQGTLVTVSS
VL: DIQVTQSPSTLSASVGDRVTITCRASQSFTSWLAWYQQKPGKAPKLLIYKASTLDSGVPSRFSGSGSGTEFTLTINGLQPDDFATYYCQHYDSYSGTFGQGTRLEIK
notes: IgG
In the case of B9, the results for the Kd in experiment [1] and in experiment [2] were 0.301 nM and 0.194 nM, respectively. The “Neut IC50 (ug/ml) subtype A” value in experiment [3] is more than 10 µg/mL. Further, in experiment [4], the “Neut IC50 (ug/ml) subtype B” value is more than 10 µg/mL.

B10: ADI-15653 (antibody, V domains shown)
VH: QVQLVQSGAEVKKPGSSVKVSCKSSGGTFSNYIISWVRQAPGQGLEWMGGIVPLSGTTDYAQKFQGRVTITADKSTTTAYMELRTLRPEDTAVYYCARGSGGSNAYFDPWGQGTLVTVSS
VL: QSVVTQPPSVSVAPGKTAKITCGGNNIGSKSVYWYQQKPGQAPVLVMYYDTYRPSGIPERFSGSNSGNSATLTISRVDAGDEADYYCQVWDSRSDHPYVFGSGTKLTVL
notes: IgG
B10: the Kd in experiment [1] came out at 0.312 nM; in experiment [2] it was 0.39 nM. Moreover, the “Neut IC50 (ug/ml) subtype A” value in experiment [3] is more than 10 µg/mL. In addition, the “Neut IC50 (ug/ml) subtype B” value in experiment [4] was more than 10 µg/mL.

B11: ADI-15604 (antibody, V domains shown)
VH: EVQLLESGGGLVKPGGSLRLSCGASGFKFSDYYMSWIRQAPGKGLEWVSHISSSNSYINYADSVKGRFTISRDNARNSLSLQMNSLRAEDTAVYYCARFPLYCSRSSCSHYVDYWGQGTLVTVSS
VL: QSVLTQPPSVSGAPGQRVTISCTGSGSNIGAGYDVHWYQQLPGTAPKLLIYDNNNRPSGVPDRFSGSKSGTSASLAITGLQVEDEADYYCQSYDRSLSVVFGGGTKVTVL
notes: IgG; also called Antibody Number 170
Regarding B11, the results for the dissociation constant (Kd) in experiment [5] and in experiment [2] were 0.46 nM and 1.77 nM, respectively. For the same molecule, in experiment [3], the “Neut IC50 (ug/ml) subtype A” value was determined as 0.081 µg/mL. The “Neut IC50 (ug/ml) subtype B” value in experiment [4] stood at 0.082 µg/mL.

B12: ADI-15629 (antibody, V domains shown)
VH: EVQLVESGGGLVQPGGSLRLSCAASGFTFSDFAMSWVRQAPGKGLEWVSLIKSSDYAYYADSVRGRFTISRDNSKNTLYLRMNSLRADDTAVYYCAKDADFWSGDSYNGGYNFDSWGQGTLVTVSS
VL: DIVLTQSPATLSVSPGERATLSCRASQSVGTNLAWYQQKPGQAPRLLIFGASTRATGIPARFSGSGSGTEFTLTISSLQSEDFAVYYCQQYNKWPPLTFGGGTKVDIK
notes: IgG
On to B12, for which the results for the equilibrium dissociation constant (Kd) in experiment [1], in experiment [5] and in experiment [2] were 0.228 nM, 0.36 nM and 0.213 nM, respectively. Moreover, in experiment [3], the “Neut IC50 (ug/ml) subtype A” value is 0.085 µg/mL. The “Neut IC50 (ug/ml) subtype B” value in experiment [4] is 0.088 µg/mL.

B13: ADI-15576 (antibody, V domains shown)
VH: QVQLVQSGAAVKKPGESLKISCKGFGYSFTKYWIGWVRQVPGKGLEWIGIISPTDSNTRYSPSFRGQVTMSADKSISAAYLQWSSLKASDTAMYYCARHSSPYSSGWYGDTYFFDSWGQGTLVTVSS
VL: QPVLTQPPSASGTPGQRVTISCSGSNSNIGTNTVNWYQQLPGTAPKVLIHNNNERPSGVPDRFSGSKSGTSASLAISGLQSEDEADYYCAAWDDSLRGYVFGTGTKVTVL
notes: IgG; also called Antibody Number 146
For the molecule B13, the Kd in experiment [1] is 0.237 nM; in experiment [2] it was 0.179 nM. Also, in experiment [3], the “Neut IC50 (ug/ml) subtype A” value amounted to 6.08 µg/mL. In addition, the “Neut IC50 (ug/ml) subtype B” value in experiment [4] amounted to 9.86 µg/mL.

B14: ADI-15578 (antibody, V domains shown)
VH: QVQLVQSGGGLVQPGGSLRLSCVGSGFTFSTYSMNWVRQAPGKGLEWVSHISSSSVTMYYADFVKGRFTISRDNAKNSLYLQMTSLRAEDTAVYYCARDAGPVWSGYYDYGMDVWGQGTTVTVSS
VL: ETTLTQSPATLSLSPGERATLSCRASQSVSSLLAWYQQKPGQAPRLLIFDASKRATGIPARFSGSGSGTDFTLTISSLEPEDFAVYYCQQRYNWPPLTFGGGTKVEIK
notes: IgG
Take B14: the Kd in experiment [1] was 1.27 nM; in experiment [2], 1.54 nM.

B15: ADI-15626 (antibody, V domains shown)
VH: EVQLVESGAEVKKPGSSVKVSCKASGGTFSSYEISWVRQAPGQGLEWMGGINPMFGAANYAQKFQDRVTIIADKSTGTVYMELSSLRSEDTALYYCARERYPSTDDYYRSGRYYGEWGQGTTVTVSS
VL: ETTLTQSPSTLSASVGDRVTITCRASQSIRSWLAWYQQKPGKAPKLLIYRASTSDSGVPSRFSGSGSGTEFTLTISSLQPDDFAIYYCQQYNSIPVTFGQGTKLEIK
notes: IgG
In the case of B15, the Kd in experiment [1] amounted to 0.546 nM; in experiment [5], 3.39 nM; in experiment [2], 0.653 nM. Further, the “Neut IC50 (ug/ml) subtype A” value in experiment [3] was 14.2 µg/mL. Moreover, the “Neut IC50 (ug/ml) subtype B” value in experiment [4] is more than 10 µg/mL.
